Experimental findings from publication PMC4617613 (Nature, 2015) are described below.

To fix the notation:
B1: PhnI (natural protein)
chain: MYVAVKGGEKAIDAAHALQESRRRGDTDLPELSVAQIEQQLNLAVDRVMTEGGIADRELAALALKQASGDNVEAIFLLRAYRTTLAKLAVSEPLDTTGMRLERRISAVYKDIPGGQLLGPTYDYTHRLLDFTLLANGEAPTLTTADSEQQPSPHVFSLLARQGLAKFEEDSGAQPDDITRTPPVYPCSRSSRLQQLMRGDEGYLLALAYSTQRGYGRNHPFAGEIRSGYIDVSIVPEELGFAVNVGELLMTECEMVNGFIDPPGEPPHFTRGYGLVFGMSERKAMAMALVDRALQAPEYGEHATGPAQDEEFVLAHADNVEAAGFVSHLKLPHYVDFQAELELLKRLQQEQNHG
B2: PhnJ (natural protein)
chain: MANLSGYNFAYLDEQTKRMIRRAILKAVAIPGYQVPFGGREMPMPYGWGTGGIQLTASVIGESDVLKVIDQGADDTTNAVSIRNFFKRVTGVNTTERTDDATVIQTRHRIPETPLTEDQIIIFQVPIPEPLRFIEPRETETRTMHALEEYGVMQVKLYEDIARFGHIATTYAYPVKVNGRYVMDPSPIPKFDNPKMDMMPALQLFGAGREKRIYAVPPFTRVESLDFDDHPFTVQQWDEPCAICGSTHSYLDEVVLDDAGNRMFVCSDTDYCRQQSEAKNQ
B3: PhnG (natural protein)
chain: MHADTATRQHWMSVLAHSQPAELAARLNALNITADYEVIRAAETGLVQIQARMGGTGERFFAGDATLTRAAVRLTDGTLGYSWVQGRDKQHAERCALIDALMQQSRHFQNLSETLIAPLDADRMARIAARQAEVNASRVDFFTMVRGDNA

The data set “crystal structure” deals with the molecule itself. Nature of the data set: crystal structure.
The data set “PhnI” has as its target B1. The experiment in a line: crystal structure.

Broadly, the stoichiometry N is a count of units in the complex or per binding partner. Take B1: the “stoichiometry N” value in the data set “crystal structure” turned out to be 2.

Turning to B2, in the data set with PhnI, the binding result is reported as “binds”.

On to B3, for which the binding result in the data set with PhnI is “binds”.
